In patent US7288251 (ABGENIX, dated 2007):

T1: rat CD40 on blood cells (rat, UniProt A6JXD6 20-289)
T1 construct: also called rat blood
T1 sequence: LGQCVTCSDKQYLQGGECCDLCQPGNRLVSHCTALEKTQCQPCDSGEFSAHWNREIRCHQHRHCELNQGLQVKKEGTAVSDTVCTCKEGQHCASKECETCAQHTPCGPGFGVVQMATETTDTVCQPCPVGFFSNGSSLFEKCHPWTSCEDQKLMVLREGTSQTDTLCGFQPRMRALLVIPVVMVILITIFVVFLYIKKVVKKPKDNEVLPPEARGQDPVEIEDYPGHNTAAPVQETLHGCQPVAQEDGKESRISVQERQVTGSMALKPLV

T2: dog CD40 on blood cells (dog, UniProt Q7YRL5 21-274)
T2 construct: whole, on cells; also called dog blood
T2 sequence (looked up): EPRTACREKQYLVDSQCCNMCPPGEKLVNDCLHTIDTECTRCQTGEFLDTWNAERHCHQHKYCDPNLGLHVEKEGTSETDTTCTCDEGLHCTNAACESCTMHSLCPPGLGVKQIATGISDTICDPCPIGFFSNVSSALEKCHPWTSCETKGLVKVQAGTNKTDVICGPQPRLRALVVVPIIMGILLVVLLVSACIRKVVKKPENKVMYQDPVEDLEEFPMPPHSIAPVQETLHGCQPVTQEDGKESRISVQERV


Experiments:
[1] = molecular target: T3, mouse CD40 on blood cells (mouse, UniProt P27512 20-289); assay: FACS, whole blood
T3 construct: whole, on cells; also called mouse blood

rat CD40 on blood cells = molecular target: T1, rat CD40 on blood cells; assay: FACS, whole blood
dog CD40 on blood cells = molecular target: T2, dog CD40 on blood cells; assay: FACS, whole blood
[2] = molecular target: T4, human CD40-IgG1 Fc fusion protein (human, UniProt P25942 21-193); assay: ELISA, CD40/Ig coated, antibody 1 µg/ml
T4 construct: extracellular domain; also called CD40-Ig fusion protein; CD40-IgG fusion protein; not shown: human IgG1 Fc

RANK/Ig = assay: ELISA, RANK/Ig coated, antibody 1 µg/ml
Experimental: (§1) We then washed the plate with PBST (PBS+0.1% Tween-20) three times and blocked the plate with PBST+0.5% BSA at 150 µl/well. We incubated the plate at room temperature for 1 hour and then washed with PBST three times. […] We incubated the plate at room temperature for 1 hour then washed with PBST three times. […] We incubated the plate at room temperature for 1 hour and then washed with PBST three times. […] We then read the plate using a SpectraMax™ plate reader.

4-1BB/Ig = molecular target: T5, 4-1BB/Ig; assay: ELISA, 4-1BB/Ig coated, antibody 1 µg/ml
T5 construct: also called CD137
Experimental: as §1

TNFR-1/Ig = molecular target: T6, TNFR-1/Ig; assay: ELISA, TNFR-1/Ig coated, antibody 1 µg/ml
T6 construct: also called Tumor Necrosis Factor Receptor-1
Experimental: as §1

TNFR-2/Ig = molecular target: T7, TNFR-2/Ig; assay: ELISA, TNFR-2/Ig coated, antibody 1 µg/ml
T7 construct: also called Tumor Necrosis Factor Receptor-2
Experimental: as §1

human CD40 on cells [3] = molecular target: T8, human CD40 on cells (human, UniProt P25942 21-277); assay: FACS on CD19/CD20+ B cells in whole blood
T8 construct: whole, on cells; also called human B cells; monocyte derived dendritic cells
Experimental: We incubated aliquots of human and monkey whole blood for 1 hour on ice with increasing concentrations of anti-CD40 antibodies of the invention exemplified herein or with an anti-keyhole limpet hemocyanin (KLH) antibody as a negative control. We then incubated the samples for 30 minutes on ice with anti-human IgG2-conjugated RPE (phycoerythrin). We measured binding by flow cytometry of CD19/CD20 positive B cells and analyzed the histograms of fluorescence intensity (F12-H) versus cell number (Counts) using CellQuest software. We estimated binding (K_D) for each antibody from graphs of mean fluorescence intensity versus antibody concentration. We controlled for depletion of the antibody by measuring binding over a range of cell concentrations.

human CD40 on cells [4] = molecular target: T8, human CD40 on cells; assay: cell-based or functional assay
human CD40 on cells [5] = molecular target: T8, human CD40 on cells; assay: cell-based or functional assay; remark: listed apart in the source
human CD40 on cells [6] = molecular target: T8, human CD40 on cells; assay: cell-based or functional assay; remark: listed apart in the source
human CD40 on cells [7] = molecular target: T8, human CD40 on cells; assay: cell-based or functional assay; remark: listed apart in the source
[8] = molecular target: T9, human/mouse chimeric CD40 HuD1 (human; mouse, UniProt P25942 21-64; P27512 65-147, limits assumed); assay: ELISA on chimeric CD40
T9 construct: domain: D1;domain: D2-D3

[9] = molecular target: T10, human/mouse chimeric CD40 HuD2 (mouse; human, UniProt P27512 20-64; P25942 65-94; P27512 95-147, limits assumed); assay: ELISA on chimeric CD40
T10 construct: domain: D1;domain: D2;domain: D3

[10] = molecular target: T11, human/mouse chimeric CD40 HuD3 (mouse; human, UniProt P27512 20-94; P25942 95-147, limits assumed); assay: ELISA on chimeric CD40
T11 construct: domain: D1-D2;domain: D3

[11] = molecular target: T12, human/mouse chimeric CD40 HuD2, D3 (mouse; human, UniProt P27512 20-64; P25942 65-147, limits assumed); assay: ELISA on chimeric CD40
T12 construct: domain: D1;domain: D2-D3

[12] = molecular target: T13, human/mouse chimeric CD40 HuD1, D3 (human; mouse, UniProt P25942 21-64; P27512 65-94; P25942 95-147, limits assumed); assay: ELISA on chimeric CD40
T13 construct: domain: D1;domain: D2;domain: D3

Mouse CD40(D1-D3)-6Xhis = molecular target: T14, Mouse CD40(D1-D3)-6Xhis (mouse, UniProt P27512 20-147, limits assumed); assay: ELISA, 293F supernatant
T14 construct: domain: D1-D3; also called Mouse CD40(D1-D3)-6xHis fusion protein
Text: Binding of anti-CD40 human antibodies were detected with HRP conjugated goat anti-human IgG (FC specific Caltag H10507), diluted 1:2,000.

[13] = molecular target: T4, human CD40-IgG1 Fc fusion protein; assay: SPR BIAcore 3000, CD40-Ig immobilised, antibody injected
Experimental: The carboxymethylated dextran surface of a flow cell on a sensor chip was activated by derivatization with 0.05 M N-hydroxysuccinimide mediated by 0.2 M N-ethyl-N'-(dimethylaminopropyl) carbodiimide for 7 min. […] Deactivation of unreacted N-hydroxysuccinimide esters was performed using 1 M ethanolamine hydrochloride, pH 8.5. Following immobilization, the flow cells are cleaned of any unreacted or poorly bound material with 5 regeneration injections of 5 µl of 50 mM NaOH until a stable baseline is achieved. Flow cell 2, a high density surface, measured approximately 300 RU's following surface preparation and flow cell 3, a low density surface, measured approximately 150 RU's. For flow cell 1, the activated blank surface, 35 µl of 10 mM Na acetate buffer was injected during immobilization in place of antigen. Flow cell 4 contained approximately 450 RU's of immobilized CTLA4-Ig, an irrelevant antigen control.
A dilution series of each antibody was prepared in the concentration range of 100 µg/ml to 0.1 µg/ml by half logs. The flow rate was set at 5 µl/min and 25 µl of each concentration point sample was injected over the sensor chip with a regeneration injection of 5 µl of 50 mM NaOH between each concentration of antibody injected. The data was analyzed using BIAevaluation 3.0 software.

human CD40 on cells [14] = molecular target: T8, human CD40 on cells; assay: cell-based or functional assay; remark: listed apart in the source
human CD40 on cells [15] = molecular target: T8, human CD40 on cells; assay: cell-based or functional assay; remark: listed apart in the source

T8 sequence (P25942 21-277): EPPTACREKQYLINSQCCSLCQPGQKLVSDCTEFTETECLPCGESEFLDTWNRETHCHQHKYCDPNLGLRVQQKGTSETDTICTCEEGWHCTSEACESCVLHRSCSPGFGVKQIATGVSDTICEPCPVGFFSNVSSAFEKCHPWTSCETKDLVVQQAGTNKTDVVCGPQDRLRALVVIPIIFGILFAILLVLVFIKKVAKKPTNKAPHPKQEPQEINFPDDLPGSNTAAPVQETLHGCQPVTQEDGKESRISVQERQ
T6 sequence (P19438 whole entry): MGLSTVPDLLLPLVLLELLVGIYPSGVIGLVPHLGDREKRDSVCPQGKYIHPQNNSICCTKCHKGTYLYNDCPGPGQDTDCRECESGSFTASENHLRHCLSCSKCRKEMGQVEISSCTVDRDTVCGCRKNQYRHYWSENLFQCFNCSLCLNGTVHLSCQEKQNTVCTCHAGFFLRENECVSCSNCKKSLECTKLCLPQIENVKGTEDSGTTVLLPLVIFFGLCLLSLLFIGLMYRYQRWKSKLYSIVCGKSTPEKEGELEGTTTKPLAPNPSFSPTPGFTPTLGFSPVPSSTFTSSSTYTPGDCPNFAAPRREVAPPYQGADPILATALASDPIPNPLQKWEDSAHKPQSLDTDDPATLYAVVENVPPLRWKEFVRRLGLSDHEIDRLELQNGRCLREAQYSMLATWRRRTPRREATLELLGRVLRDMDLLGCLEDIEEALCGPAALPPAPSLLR
T4 sequence (P25942 21-193): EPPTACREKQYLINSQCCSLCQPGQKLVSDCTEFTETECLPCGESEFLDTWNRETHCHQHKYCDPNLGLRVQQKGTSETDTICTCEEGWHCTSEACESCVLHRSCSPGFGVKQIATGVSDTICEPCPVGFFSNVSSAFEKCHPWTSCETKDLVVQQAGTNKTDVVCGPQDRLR
RANK/Ig, sequence (Q9Y6Q6 whole entry): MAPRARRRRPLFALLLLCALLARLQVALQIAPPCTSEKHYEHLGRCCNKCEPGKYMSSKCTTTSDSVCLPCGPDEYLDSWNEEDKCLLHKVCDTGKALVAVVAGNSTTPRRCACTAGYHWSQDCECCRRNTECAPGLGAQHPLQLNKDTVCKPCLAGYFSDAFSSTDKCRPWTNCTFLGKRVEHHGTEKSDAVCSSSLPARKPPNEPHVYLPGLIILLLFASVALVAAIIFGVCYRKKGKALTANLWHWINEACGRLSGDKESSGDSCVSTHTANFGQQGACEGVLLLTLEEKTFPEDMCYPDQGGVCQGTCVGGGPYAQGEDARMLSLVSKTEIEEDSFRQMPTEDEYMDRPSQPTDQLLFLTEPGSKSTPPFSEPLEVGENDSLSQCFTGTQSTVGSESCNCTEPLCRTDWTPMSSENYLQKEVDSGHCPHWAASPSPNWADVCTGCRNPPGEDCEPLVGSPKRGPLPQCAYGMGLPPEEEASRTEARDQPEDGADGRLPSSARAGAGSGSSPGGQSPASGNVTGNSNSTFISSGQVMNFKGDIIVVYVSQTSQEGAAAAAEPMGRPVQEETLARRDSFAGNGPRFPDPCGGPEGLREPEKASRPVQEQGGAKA
T3 sequence (P27512 20-289): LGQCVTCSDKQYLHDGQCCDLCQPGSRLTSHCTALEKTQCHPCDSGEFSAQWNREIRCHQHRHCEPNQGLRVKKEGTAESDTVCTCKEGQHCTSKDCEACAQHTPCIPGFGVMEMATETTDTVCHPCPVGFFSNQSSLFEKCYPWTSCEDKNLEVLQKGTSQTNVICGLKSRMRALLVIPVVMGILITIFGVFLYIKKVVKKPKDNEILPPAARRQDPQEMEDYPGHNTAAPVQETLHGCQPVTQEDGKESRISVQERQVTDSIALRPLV
T7 sequence (P20333 23-257): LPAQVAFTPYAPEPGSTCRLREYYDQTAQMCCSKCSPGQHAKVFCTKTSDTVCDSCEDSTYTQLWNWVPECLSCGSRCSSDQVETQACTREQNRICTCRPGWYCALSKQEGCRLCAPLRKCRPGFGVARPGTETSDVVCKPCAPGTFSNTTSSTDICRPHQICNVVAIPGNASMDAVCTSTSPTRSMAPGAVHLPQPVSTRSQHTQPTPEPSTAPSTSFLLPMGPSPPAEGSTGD
T9 sequence (P25942 other isoform, or with tags, fused parts or gaps mutant limits assumed): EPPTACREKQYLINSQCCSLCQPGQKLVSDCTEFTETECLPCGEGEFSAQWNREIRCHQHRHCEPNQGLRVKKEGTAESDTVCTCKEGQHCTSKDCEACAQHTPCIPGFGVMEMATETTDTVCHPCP
T14 sequence (P27512 other isoform, or with tags, fused parts or gaps limits assumed): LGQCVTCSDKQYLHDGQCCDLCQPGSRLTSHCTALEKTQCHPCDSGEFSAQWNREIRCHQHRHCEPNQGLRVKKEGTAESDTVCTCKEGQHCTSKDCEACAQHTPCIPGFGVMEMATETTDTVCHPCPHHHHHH
T11 sequence (P27512 other isoform, or with tags, fused parts or gaps mutant limits assumed): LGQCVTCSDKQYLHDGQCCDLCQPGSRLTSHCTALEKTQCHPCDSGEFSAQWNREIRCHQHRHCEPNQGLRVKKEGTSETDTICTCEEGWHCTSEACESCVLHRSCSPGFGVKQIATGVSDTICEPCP
T13 sequence (P25942 other isoform, or with tags, fused parts or gaps mutant limits assumed): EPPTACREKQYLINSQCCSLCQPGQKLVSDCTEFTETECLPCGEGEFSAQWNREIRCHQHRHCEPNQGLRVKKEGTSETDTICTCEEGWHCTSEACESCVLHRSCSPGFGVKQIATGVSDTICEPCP
T10 sequence (P27512 other isoform, or with tags, fused parts or gaps mutant limits assumed): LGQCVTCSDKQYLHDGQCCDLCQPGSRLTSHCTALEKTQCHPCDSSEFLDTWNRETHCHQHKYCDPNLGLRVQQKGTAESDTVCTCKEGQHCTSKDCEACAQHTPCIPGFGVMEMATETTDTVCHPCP
T12 sequence (P27512 other isoform, or with tags, fused parts or gaps mutant limits assumed): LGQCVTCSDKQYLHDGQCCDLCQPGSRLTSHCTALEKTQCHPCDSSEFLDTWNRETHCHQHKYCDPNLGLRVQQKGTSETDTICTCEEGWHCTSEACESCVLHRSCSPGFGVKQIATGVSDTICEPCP

| Binder | binding result [1] | binding result (rat CD40 on blood cells) | binding result (dog CD40 on blood cells) | CD40 specific signal over the signal for this molecule (RANK/Ig) | CD40 specific signal over the signal for this molecule (4-1BB/Ig) | CD40 specific signal over the signal for this molecule (TNFR-1/Ig) | CD40 specific signal over the signal for this molecule (TNFR-2/Ig) | DC IL-12p70 secretion with LPS, EC50 (human CD40 on cells [6]) | Allo DC/T IFNγ secretion, EC50 (human CD40 on cells [7]) | binding result [8] | binding result [10] | binding result [12] | binding result (Mouse CD40(D1-D3)-6Xhis) | Kd [13] | further results |
| --- | --- | --- | --- | --- | --- | --- | --- | --- | --- | --- | --- | --- | --- | --- | --- |
| monoclonal antibody 7.1.2 (antibody, human IgG2, kappa, V domains shown, Human IgG2 kappa from hybridoma; also called hybridoma 7.1.2 (LN 15849), ATCC PTA-3601) VH: QVQLVESGGGVVQPGRSLRLSCAASGFTFSSYGMHWVRQAPGKGLEWVAVISNDGDNKYHADSVWGRFTISRDNSRSTLYLQMNSLRAEDTAVYYCARRGMGSSGSRGDYYYYYGLDVWGQGTTVTVSS VL: not shown | no binding | no binding | no binding | ≥ 100 fold | ≥ 100 fold | ≥ 100 fold | ≥ 100 fold | – | – | – | – | – | – | – | binding result [2]: binds; binding result (human CD40 on cells [3]): binds |
| monoclonal antibody 21.4.1 (antibody, human IgG2, kappa, V domains shown, Human IgG2 kappa from hybridoma; also called mAb 21.4.1; hybridoma 21.4.1 (LN 15853), ATCC PTA-3605) VH: not shown VL: DIQMTQSPSSVSASVGDRVTITCRASQGIYSWLAWYQQKPGKAPNLLIYTASTLQSGVPSRFSGSGSGTDFTLTISSLQPEDFATYYCQQANIFPLTFGGGTKVEIKR | no binding | no binding | no binding | ≥ 100 fold | ≥ 100 fold | ≥ 100 fold | ≥ 100 fold | 0.3 µg/mL | 0.3 µg/mL | no binding | no binding | no binding | no binding | 0.348 nM | B cell B7-2 upregulation, EC50 (human CD40 on cells [4]): 0.016 µg/mL; B cell CD23 upregulation, EC50 (human CD40 on cells [4]): 0.019 µg/mL; B cell CD71 upregulation, EC50 (human CD40 on cells [4]): 0.00073 µg/mL; B cell ICAM upregulation, EC50 (human CD40 on cells [4]): 0.0153 µg/mL; B cell MHC II upregulation, EC50 (human CD40 on cells [4]): 0.00385 µg/mL; Dendritic cell B7-2 upregulation, EC50 (human CD40 on cells [5]): 0.0714 µg/mL; Dendritic cell CD83 upregulation, EC50 (human CD40 on cells [5]): 0.233 µg/mL; Dendritic cell ICAM upregulation, EC50 (human CD40 on cells [5]): 0.241 µg/mL; Dendritic cell MHC II upregulation, EC50 (human CD40 on cells [5]): 0.252 µg/mL; binding result [9]: no binding; binding result [11]: no binding |
| monoclonal antibody 23.29.1 (antibody, human IgG2, kappa, V domains shown, Human IgG2 kappa from hybridoma; also called mAb 23.29.1; hybridoma 23.29.1 (LN 15878), ATCC PTA-4553) VH: QVQLVESGGGVVQPGRSLRLSCAASGFTFSSYAMHWVRQAPGKGLEWVAVISYDGSNKYYADSVKGRFTIYRDNSKNTLYLQMNSLRAEDTAVYYCARRGHYGNNYYSYYGLDVWGQGTTVTVSS VL: DIVMTQSPLSLPVTPGEPASISCRSSQSLLPGNGYNYLDWYLQKPGQSPQLLIYLGSNRASGVPDRFSGSGSGTDFTLKISRVEAEDVGIYYCMQALQTPRTFGQGTKVEIKR | no binding | no binding | no binding | ≥ 100 fold | ≥ 100 fold | ≥ 100 fold | ≥ 100 fold | 0.1 µg/mL | 0.3 µg/mL | no binding | no binding | no binding | no binding | 0.0704 nM | B cell B7-1 (CD80), fold increase in median intensity at 1 µg/ml (human CD40 on cells [14]): 1.3 fold; B cell B7-2 (CD86), fold increase in median intensity at 1 µg/ml (human CD40 on cells [14]): 0.9 fold; B cell CD23, fold increase in median intensity at 1 µg/ml (human CD40 on cells [14]): 1.1 fold; B cell ICAM (CD54), fold increase in median intensity at 1 µg/ml (human CD40 on cells [14]): 1 fold; B cell MHC Class II, fold increase in median intensity at 1 µg/ml (human CD40 on cells [14]): 1.2 fold; DC B7-1 (CD80), fold increase in median intensity at 1 µg/ml, 72 h (human CD40 on cells [15]): 0.9 fold; DC B7-2 (CD86), fold increase in median intensity at 1 µg/ml, 72 h (human CD40 on cells [15]): 8.4 fold; DC CD83, fold increase in median intensity at 1 µg/ml, 72 h (human CD40 on cells [15]): 10.6 fold; DC ICAM (CD54), fold increase in median intensity at 1 µg/ml, 72 h (human CD40 on cells [15]): 1.2 fold; DC MHC Class II, fold increase in median intensity at 1 µg/ml, 72 h (human CD40 on cells [15]): 2 fold; koff [13]: 3.9e-05 s⁻¹; kon [13]: 354000 M⁻¹ s⁻¹ |
